This note sets out measurements from article doi:10.1101/2022.09.22.509047, “Deciphering bacteriophage T5 host recognition mechanism and infection trigger” (bioRxiv, 2022).

The target of the experiment is T1, E. coli iron ferrichrome transporter FhuA (E. coli, UniProt P06971 34-747).
T1 construct: FhuA, outer-membrane iron-ferrichrome transporter of E. coli; His-tag inserted in extracellular loop L5 after residue 405 (9 residues, not counted in the numbering); residues 1-17 disordered in the map; Lipopolysaccharide copurifies with FhuA; Purification is as in Flayhan et al, 2012; source: E. coli AW740, plasmid-encoded, grown with 100 µM dipyridine, purified; not shown: His6, internal (after …)
T1 sequence (looked up): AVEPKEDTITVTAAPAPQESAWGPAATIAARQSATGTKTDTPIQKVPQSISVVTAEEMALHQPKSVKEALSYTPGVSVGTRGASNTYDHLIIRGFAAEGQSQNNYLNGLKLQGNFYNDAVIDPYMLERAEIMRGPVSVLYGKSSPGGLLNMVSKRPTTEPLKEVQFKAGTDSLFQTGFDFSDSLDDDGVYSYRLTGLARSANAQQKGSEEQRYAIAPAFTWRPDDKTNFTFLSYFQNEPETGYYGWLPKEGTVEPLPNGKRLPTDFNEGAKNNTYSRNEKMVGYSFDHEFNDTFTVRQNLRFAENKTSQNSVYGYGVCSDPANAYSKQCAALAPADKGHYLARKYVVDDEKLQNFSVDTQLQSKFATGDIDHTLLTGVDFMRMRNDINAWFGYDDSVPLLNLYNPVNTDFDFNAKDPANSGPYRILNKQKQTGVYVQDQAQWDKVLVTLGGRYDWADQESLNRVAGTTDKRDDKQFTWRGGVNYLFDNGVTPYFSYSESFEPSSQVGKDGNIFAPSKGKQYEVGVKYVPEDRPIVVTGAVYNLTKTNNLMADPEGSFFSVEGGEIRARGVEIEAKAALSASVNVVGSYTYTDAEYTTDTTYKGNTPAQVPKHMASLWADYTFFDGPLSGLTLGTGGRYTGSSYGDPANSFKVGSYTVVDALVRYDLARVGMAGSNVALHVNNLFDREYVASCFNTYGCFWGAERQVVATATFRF
Description: cryo-EM structure; FhuA-RBPpb5 complex formed from equimolar amounts of the two purified proteins; 20 mM Tris, 1.6% C10DAO, 4.3 mg/mL; 2.6 Å average resolution. To be noted: both partners purified.

B1: bacteriophage T5 Receptor Binding Protein pb5 (natural protein)
chain: MSFFAGKLNNKSILSLRRGSGGDTNQHINPDSQTIFHSDMSHVIITETHSTGLRLDQGAGDYYWSEMPSRVTQLHNNDPNRVVLTEIEFSDGSRHMLSGMSMGVGAKAYGIINPQIMSQGGLKTQITASADLSLDVGYFNTGTSGTIPQKLRDGTGCQHMFGAFSGRRGFASSAMYLGGAALYKSAWSGSGYVVADAGTLTIPSDYVRHPGARNFGFNAIYVRGRSCNRVLYGMEGPNYTTGGAVQGASSSGALNFTYNPSNPESPKYSVGFARADPTNYAYWESMGDPNDSANGPIGIYSEHLGIYPSKITWYVTNLVYNGSGYNIDGGLFNGNDIKLSPREFIIKGVNVNNTSWKFINFIEKNFNVGNRADFRDVGCNLSKDSPSTGISGIATFGLPTTESNNAPSIKGGNVGGLHANVVSIYNFLPSASWYVSSNPPKIGNNYGDVWSENLLPLRLLGGSGSTILSGNIVFQGNGSVHVGTVGLDLNSSRNGAIVCTMEFIDDTWLSAGGIGCFNPTEMLSQGAEYGDSRFRIGGNTINKKLHQILSLPAGEYVPFFTIKGTVVNACKLQAAAYNPTPYWVSGLPGSVGQTGYYTLTYYMRNDGNNNISIWLDSSMSNIIGMKACLPNIKLIIQRLT
notes: 640 residues; residues 1-37, 333-352, 365-371 and 427-455 not traced in the map; In the functional rows pb5 stands on the phage T5 tail tip (T5st0), untagged; also called RBPpb5; source: E. coli BL21(DE3), pET-28 vector, 20 °C without induction, purified; not shown: His tag, C-terminal, kept
For B1, the binding result is on record as “binds”.
